Data taken from US20240124865.
Numbering of substitutions follows the chain as printed. Names and notes keep the numbering of the source.

Biological target: T1, FRETS-VWF73 substrate (VWF fragment comprising VWFA2 domain residues 1596 to 1668)
T1 chain: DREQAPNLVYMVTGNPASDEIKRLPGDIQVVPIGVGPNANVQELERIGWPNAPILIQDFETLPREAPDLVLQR

B1: ADAMTS13 A1144I variant (Exemplified A1144I variant) (protein)
chain: AAGGILHLELLVAVGPDVFQAHQEDTERYVLTNLNIGAELLRDPSLGAQFRVHLVKMVILTEPEGAPNITANLTSSLLSVCGWSQTINPEDDTDPGHADLVLYITRFDLELPDGNRQVRGVTQLGGACSPTWSCLITEDTGFDLGVTIAHEIGHSFGLEHDGAPGSGCGPSGHVMASDGAAPRAGLAWSPCSRRQLLSLLSAGRARCVWDPPRPQPGSAGHPPDAQPGLYYSANEQCRVAFGPKAVACTFAREHLDMCQALSCHTDPLDQSSCSRLLVPLLDGTECGVEKWCSKGRCRSLVELTPIAAVHGRWSSWGPRSPCSRSCGGGVVTRRRQCNNPRPAFGGRACVGADLQAEMCNTQACEKTQLEFMSQQCARTDGQPLRSSPGGASFYHWGAAVPHSQGDALCRHMCRAIGESFIMKRGDSFLDGTRCMPSGPREDGTLSLCVSGSCRTFGCDGRMDSQQVWDRCQVCGGDNSTCSPRKGSFTAGRAREYVTFLTVTPNLTSVYIANHRPLFTHLAVRIGGRYVVAGKMSISPNTTYPSLLEDGRVEYRVALTEDRLPRLEEIRIWGPLQEDADIQVYRRYGEEYGNLTRPDITFTYFQPKPRQAWVWAAVRGPCSVSCGAGLRWVNYSCLDQARKELVETVQCQGSQQPPAWPEACVLEPCPPYWAVGDFGPCSASCGGGLRERPVRCVEAQGSLLKTLPPARCRAGAQQPAVALETCNPQPCPARWEVSEPSSCTSAGGAGLALENETCVPGADGLEAPVTEGPGSVDEKLPAPEPCVGMSCPPGWGHLDATSAGEKAPSPWGSIRTGAQAAHVWTPAAGSCSVSCGRGLMELRFLCMDSALRVPVQEELCGLASKPGSRREVCQAVPCPARWQYKLAACSVSCGRGVVRRILYCARAHGEDDGEEILLDTQCQGLPRPEPQEACSLEPCPPRWKVMSLGPCSASCGLGTARRSVACVQLDQGQDVEVDEAACAALVRPEASVPCLIADCTYRWHVGTWMECSVSCGDGIQRRRDTCLGPQAQAPVPADFCQHLPKPVTVRGCWAGPCVGQGTPSLVPHEEIAAPGRTTATPAGASLEWSQARGLLFSPAPQPRRLLPGPQENSVQSSACGRQHLEPTGTIDMRGPGQADCAVAIGRPLGEVVTLRVLESSLNCSAGDMLLLWGRLTWRKMCRKLLDMTFSSKTNTLVVRQRCGRPGGGVLLRYGSQLAPETFYRECDMQLFGPWGEIVSPSLSPATSNAGGCRLFINVAPHARIAIHALATNMGAGTEGANASYILIRDTHSLRTTAFHGQQVLYWESESSQAEMEFSEGFLKAQASLRGQYWTLQSWVPEMQDPQSWKGKEGTSRGPFEQKLISEEDLNMHTGHHHHHH
proteolytic activity, FRETS-VWF73 assay: induces a similar constitutive activity to that seen with the A1144V, A1146V variants

B2: ADAMTS13 P1182K variant (Exemplified P1182K variant) (protein)
chain: B1 chain with I1070A, P1108K
proteolytic activity, FRETS-VWF73 assay, fold increase: Induces greater than 10-fold increase in activity

B3: ADAMTS13 P1180I variant (Exemplified P1180I variant) (protein)
chain: B1 chain with I1070A, P1106I
proteolytic activity, FRETS-VWF73 assay, fold increase: Induces greater than 10-fold increase in activity

B4: ADAMTS13 A1146I variant (Exemplified A1146I variant) (protein)
chain: B1 chain with I1070A, A1072I
proteolytic activity, FRETS-VWF73 assay: induces a similar constitutive activity to that seen with the A1144V, A1146V variants

B5: Myc/His6-tagged ADAMTS13 P1180V variant (Exemplified P1180V variant) (protein)
chain: B1 chain with I1070A, P1106V
proteolytic activity, FRETS-VWF73 assay, absence of VWF-D4CK, fold over wildtype ADAMTS13: more than 4-fold higher than wildtype ADAMTS13
proteolytic activity, FRETS-VWF73 assay, in the absence and in the presence of the activating VWF-D4CK fragment: displayed significantly higher proteolytic activity compared to wildtype ADAMTS13 and the R568K/F592Y/R660K/Y661F/Y665F variant

B6: Myc/His6-tagged recombinant wildtype human ADAMTS13 (Exemplified wildtype ADAMTS13) (protein)
chain: B1 chain with I1070A
proteolytic activity, FRETS-VWF73 assay, basal (no VWF-D4CK); reference for all other activities: All activities are presented relative to the basal activity of wtADAMTS13 (100%)

B7: ADAMTS13 P1180K variant (Exemplified P1180K variant) (protein)
chain: B1 chain with I1070A, P1106K
proteolytic activity, FRETS-VWF73 assay, fold increase: Induces greater than 10-fold increase in activity

B8: Myc/His6-tagged ADAMTS13 A1146V variant (Exemplified A1146V variant) (protein)
chain: B1 chain with I1070A, A1072V
proteolytic activity, FRETS-VWF73 assay, absence of VWF-D4CK, fold over wildtype ADAMTS13: more than 4-fold higher than wildtype ADAMTS13
proteolytic activity, FRETS-VWF73 assay, in the absence and in the presence of the activating VWF-D4CK fragment: displayed significantly higher proteolytic activity compared to wildtype ADAMTS13 and the R568K/F592Y/R660K/Y661F/Y665F variant

B9: Myc/His6-tagged ADAMTS13 A1144V variant (Exemplified A1144V variant) (protein)
chain: B1 chain with I1070V
proteolytic activity, FRETS-VWF73 assay, absence of VWF-D4CK, fold over wildtype ADAMTS13: more than 4-fold higher than wildtype ADAMTS13
proteolytic activity, FRETS-VWF73 assay, in the absence and in the presence of the activating VWF-D4CK fragment: displayed significantly higher proteolytic activity compared to wildtype ADAMTS13 and the R568K/F592Y/R660K/Y661F/Y665F variant

B10: ADAMTS13 P1182I variant (Exemplified P1182I variant) (protein)
chain: B1 chain with I1070A, P1108I
proteolytic activity, FRETS-VWF73 assay, fold increase: Induces greater than 10-fold increase in activity

B11: Myc/His6-tagged ADAMTS13 P1182V variant (Exemplified P1182V variant) (protein)
chain: B1 chain with I1070A, P1108V
proteolytic activity, FRETS-VWF73 assay, absence of VWF-D4CK, fold over wildtype ADAMTS13: more than 4-fold higher than wildtype ADAMTS13
proteolytic activity, FRETS-VWF73 assay, in the absence and in the presence of the activating VWF-D4CK fragment: displayed significantly higher proteolytic activity compared to wildtype ADAMTS13 and the R568K/F592Y/R660K/Y661F/Y665F variant
